Data published in PMC11417369, “DNA sequence and chromatin differentiate sequence-specific transcription factor binding in the human malaria parasite Plasmodium falciparum”.

T1: SIP2 D1 (Plasmodium falciparum, UniProt C6KSN9 177-235)
T1 sequence: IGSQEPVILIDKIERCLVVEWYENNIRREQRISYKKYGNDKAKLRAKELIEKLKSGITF

T2: HDP1 homeodomain-like (Plasmodium falciparum, UniProt Q8IKH4 2990-3078)
T2 sequence: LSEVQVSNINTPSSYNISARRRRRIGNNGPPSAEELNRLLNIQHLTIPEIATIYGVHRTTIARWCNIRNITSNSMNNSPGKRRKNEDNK


How the values were obtained:
Assay in all cases: gcPBM; about 25 ug protein; PBS, 1% milk, 0.2 mg/ml BSA, salmon testes DNA, 0.03% Triton X-100
SIP2 D1 = biological target: T1, SIP2 D1; conditions: tags: N-terminal GST (pGEX-4T-1), kept; label: surface-attached array probe
AP2-I D3 = AP2-I D3 (Plasmodium falciparum, UniProt Q8IJW6 910-1027); conditions: tags: N-terminal GST (pGEX-4T-1), kept; label: surface-attached array probe
HDP1 homeodomain-like = biological target: T2, HDP1 homeodomain-like; conditions: tags: N-terminal GST (pGEX-4T-1), kept; chain copies: 2; label: surface-attached array probe

Binder	binding signal (SIP2 D1)	binding signal (AP2-I D3)	binding signal (HDP1 homeodomain-like)
GTGCAC_negctrl_site214 (dsDNA) DNA 1: ACCCAAGAGAAAAGAGAAAGAAATATGTGTATATTG DNA 2: CAATATACACATATTTCTTTCTCTTTTCTCTTGGGT	6.82 ln median PBM intensity, better of two orientations	7.02 ln median PBM intensity, better of two orientations	–
GTGCAC_negctrl_site458 (dsDNA) DNA 1: ATGTAATTATAAGATTAATATACATAATTATATGTA DNA 2: TACATATAATTATGTATATTAATCTTATAATTACAT	6.75 ln median PBM intensity, better of two orientations	7.02 ln median PBM intensity, better of two orientations	–
GTGCAC_negctrl_site669 (dsDNA) DNA 1: AAAAAAAAGTATGATTCTAAATTTATGTATATATAA DNA 2: TTATATATACATAAATTTAGAATCATACTTTTTTTT	6.9 ln median PBM intensity, better of two orientations	7.05 ln median PBM intensity, better of two orientations	–
GTGCAC_negctrl_site491 (dsDNA) DNA 1: TTTTTTATTTTTTACATATTTAGCTCATATTTATAT DNA 2: ATATAAATATGAGCTAAATATGTAAAAAATAAAAAA	6.81 ln median PBM intensity, better of two orientations	7.12 ln median PBM intensity, better of two orientations	–
GTGCAC_site10073 (dsDNA) DNA 1: AAATACTGTACAAAGGTGCATAAAAAGTGGGGCATA DNA 2: TATGCCCCACTTTTTATGCACCTTTGTACAGTATTT	11.1 ln median PBM intensity, better of two orientations	11.7 ln median PBM intensity, better of two orientations	–
GTGCAC_site10368 (dsDNA) DNA 1: ACATGTGAATTTTAGGTGCACTTGTAATTTAACATT DNA 2: AATGTTAAATTACAAGTGCACCTAAAATTCACATGT	11.7 ln median PBM intensity, better of two orientations	10.9 ln median PBM intensity, better of two orientations	–
GTGCAC_site9624 (dsDNA) DNA 1: GACAAATAATAAAAGGTGCATTATACTTAACAAAAA DNA 2: TTTTTGTTAAGTATAATGCACCTTTTATTATTTGTC	11.4 ln median PBM intensity, better of two orientations	12.2 ln median PBM intensity, better of two orientations	–
GTGCAC_site10700 (dsDNA) DNA 1: ATTATACAAATTGAGGTGCATGAAACAAAATATGAA DNA 2: TTCATATTTTGTTTCATGCACCTCAATTTGTATAAT	10.6 ln median PBM intensity, better of two orientations	9.77 ln median PBM intensity, better of two orientations	–
GTGCAC_site10051 (dsDNA) DNA 1: AATAAATTAAAACAGGTGCACTATATTACACACGCT DNA 2: AGCGTGTGTAATATAGTGCACCTGTTTTAATTTATT	11.6 ln median PBM intensity, better of two orientations	12 ln median PBM intensity, better of two orientations	–
GTGCAC_negctrl_site217 (dsDNA) DNA 1: TGACTTTGTTGAATTTGTCCTCTTAACTCATAATAT DNA 2: ATATTATGAGTTAAGAGGACAAATTCAACAAAGTCA	6.72 ln median PBM intensity, better of two orientations	7.06 ln median PBM intensity, better of two orientations	–
GTGCAC_negctrl_site81 (dsDNA) DNA 1: TTTATTAGATAACGATAAACGAAAAAAAAAAAATAA DNA 2: TTATTTTTTTTTTTTCGTTTATCGTTATCTAATAAA	6.8 ln median PBM intensity, better of two orientations	7.19 ln median PBM intensity, better of two orientations	–
GTGCAC_site9957 (dsDNA) DNA 1: TTTTAATGTACCAGTGTGCACCTTGCGTACATATTA DNA 2: TAATATGTACGCAAGGTGCACACTGGTACATTAAAA	11.8 ln median PBM intensity, better of two orientations	10.3 ln median PBM intensity, better of two orientations	–
GTGCAC_negctrl_site170 (dsDNA) DNA 1: AATATATTTTGATATGAACAATTAATAATTTCAAAT DNA 2: ATTTGAAATTATTAATTGTTCATATCAAAATATATT	6.86 ln median PBM intensity, better of two orientations	7.19 ln median PBM intensity, better of two orientations	–
GTGCAC_negctrl_site613 (dsDNA) DNA 1: TACTCAAAAATTAATTAGCATAATATATATAAAAAT DNA 2: ATTTTTATATATATTATGCTAATTAATTTTTGAGTA	6.83 ln median PBM intensity, better of two orientations	7.28 ln median PBM intensity, better of two orientations	–
GTGCAC_negctrl_site108 (dsDNA) DNA 1: TTGTTTAACTTGTTAAATATAATGTATCTGTGGATA DNA 2: TATCCACAGATACATTATATTTAACAAGTTAAACAA	6.74 ln median PBM intensity, better of two orientations	7.12 ln median PBM intensity, better of two orientations	–
GTGCAC_negctrl_site278 (dsDNA) DNA 1: TTTTTTACATACAGAAATATATAATATAAAATAAAT DNA 2: ATTTATTTTATATTATATATTTCTGTATGTAAAAAA	6.9 ln median PBM intensity, better of two orientations	7.19 ln median PBM intensity, better of two orientations	–
GTGCAC_site9422 (dsDNA) DNA 1: CACTCTTAAAATAAGGTGCACTATATAACGTGATTA DNA 2: TAATCACGTTATATAGTGCACCTTATTTTAAGAGTG	11.7 ln median PBM intensity, better of two orientations	12.2 ln median PBM intensity, better of two orientations	–
GTGCAC_negctrl_site701 (dsDNA) DNA 1: ATTAATATGAAACGATTATAAGAAAGAAAAGAAATG DNA 2: CATTTCTTTTCTTTCTTATAATCGTTTCATATTAAT	6.92 ln median PBM intensity, better of two orientations	7.09 ln median PBM intensity, better of two orientations	–
GTGCAC_negctrl_site283 (dsDNA) DNA 1: ATAATTCCAAGAATTTCATATATCTGAATTTTAGGT DNA 2: ACCTAAAATTCAGATATATGAAATTCTTGGAATTAT	6.91 ln median PBM intensity, better of two orientations	6.92 ln median PBM intensity, better of two orientations	–

Binder	binding signal (SIP2 D1)	binding signal (AP2-I D3)	binding signal (HDP1 homeodomain-like)
GTGCAC_negctrl_site660 (dsDNA) DNA 1: AATTAATTTATTTTATAAATAGTTAGATCGTCATAA DNA 2: TTATGACGATCTAACTATTTATAAAATAAATTAATT	6.78 ln median PBM intensity, better of two orientations	7.02 ln median PBM intensity, better of two orientations	–
GTGCAC_site10578 (dsDNA) DNA 1: CATATTGTCATTCTGGTGCACTTTTTTTTTTTTTTT DNA 2: AAAAAAAAAAAAAAAGTGCACCAGAATGACAATATG	11.4 ln median PBM intensity, better of two orientations	10.9 ln median PBM intensity, better of two orientations	–
GTGCAC_negctrl_site391 (dsDNA) DNA 1: TTTTTTATTTTAATGTATTATTTTTATGTAATATAT DNA 2: ATATATTACATAAAAATAATACATTAAAATAAAAAA	6.72 ln median PBM intensity, better of two orientations	7.14 ln median PBM intensity, better of two orientations	–
GTGCAC_negctrl_site129 (dsDNA) DNA 1: AATTTAATCCGTAATAAGAAAAGAAAAAAAAAAAGA DNA 2: TCTTTTTTTTTTTCTTTTCTTATTACGGATTAAATT	6.91 ln median PBM intensity, better of two orientations	7.24 ln median PBM intensity, better of two orientations	–
GTGCAC_negctrl_site490 (dsDNA) DNA 1: TGTATAAAAAGAAAAAATCGTATGTGTTATCAAAAA DNA 2: TTTTTGATAACACATACGATTTTTTCTTTTTATACA	6.88 ln median PBM intensity, better of two orientations	6.98 ln median PBM intensity, better of two orientations	–
GTGCAC_negctrl_site665 (dsDNA) DNA 1: TTTTAAATCTTATATTCCCCACATAAATAGCTCTCT DNA 2: AGAGAGCTATTTATGTGGGGAATATAAGATTTAAAA	6.72 ln median PBM intensity, better of two orientations	7.16 ln median PBM intensity, better of two orientations	–
GTGCAC_site9630 (dsDNA) DNA 1: TTTAATTTATATTTTGTGCACATCTTATTATATATA DNA 2: TATATATAATAAGATGTGCACAAAATATAAATTAAA	–	–	11.7 ln median PBM intensity, better of two orientations
GTGCAC_site10418 (dsDNA) DNA 1: CTTTTCTATTTTTTCGTGCACTATAAATATTTTAAT DNA 2: ATTAAAATATTTATAGTGCACGAAAAAATAGAAAAG	10.6 ln median PBM intensity, better of two orientations	12.3 ln median PBM intensity, better of two orientations	–
GTGCAC_negctrl_site647 (dsDNA) DNA 1: ATCAGTGATTAGGTTATATATAAAAATGAACTAATA DNA 2: TATTAGTTCATTTTTATATATAACCTAATCACTGAT	6.8 ln median PBM intensity, better of two orientations	7.28 ln median PBM intensity, better of two orientations	–
GTGCAC_negctrl_site728 (dsDNA) DNA 1: TTTTGTAAAATTAATTTATTATACATATATATTTCT DNA 2: AGAAATATATATGTATAATAAATTAATTTTACAAAA	6.83 ln median PBM intensity, better of two orientations	7.06 ln median PBM intensity, better of two orientations	–
GTGCAC_site10153 (dsDNA) DNA 1: AAAATGTAATATTGGGTGCACAATAAGTTTGATGTC DNA 2: GACATCAAACTTATTGTGCACCCAATATTACATTTT	11.5 ln median PBM intensity, better of two orientations	12.2 ln median PBM intensity, better of two orientations	–
GTGCAC_site9431 (dsDNA) DNA 1: TCTTCTTTAAAAGAGGTGCACTATATAATGTGATTA DNA 2: TAATCACATTATATAGTGCACCTCTTTTAAAGAAGA	11.8 ln median PBM intensity, better of two orientations	12.2 ln median PBM intensity, better of two orientations	–
GTGCAC_negctrl_site191 (dsDNA) DNA 1: TTTTAAATTGGAGTGGGCAGATTGATATTATTCTTC DNA 2: GAAGAATAATATCAATCTGCCCACTCCAATTTAAAA	6.81 ln median PBM intensity, better of two orientations	7.28 ln median PBM intensity, better of two orientations	–
GTGCAC_negctrl_site670 (dsDNA) DNA 1: TAAGACTATTAAAAAATTGAGTACATGAACTGTTCA DNA 2: TGAACAGTTCATGTACTCAATTTTTTAATAGTCTTA	6.86 ln median PBM intensity, better of two orientations	7.11 ln median PBM intensity, better of two orientations	–
GTGCAC_site9981 (dsDNA) DNA 1: ATAATGTTCACATAGGTGCACTAATATAATTATCCA DNA 2: TGGATAATTATATTAGTGCACCTATGTGAACATTAT	11.4 ln median PBM intensity, better of two orientations	12.2 ln median PBM intensity, better of two orientations	–
GTGCAC_site9947 (dsDNA) DNA 1: TATTTGAAAACATAGGTGCACATTATTTTATAATCT DNA 2: AGATTATAAAATAATGTGCACCTATGTTTTCAAATA	11.6 ln median PBM intensity, better of two orientations	11.1 ln median PBM intensity, better of two orientations	–
GTGCAC_negctrl_site45 (dsDNA) DNA 1: TTATGTTGCGAGTTCTTAAGATATAAAAAATTCTTC DNA 2: GAAGAATTTTTTATATCTTAAGAACTCGCAACATAA	6.87 ln median PBM intensity, better of two orientations	7.08 ln median PBM intensity, better of two orientations	–
GTGCAC_site9615 (dsDNA) DNA 1: TTATTTTATTTTTTTGTGCACATATATATTTATAAA DNA 2: TTTATAAATATATATGTGCACAAAAAAATAAAATAA	–	–	11.9 ln median PBM intensity, better of two orientations
